T1: Abp1 SH3 (ABP1_YEAST), P15891
T1 chain: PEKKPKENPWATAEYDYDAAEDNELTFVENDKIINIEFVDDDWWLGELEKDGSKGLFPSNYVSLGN


Target: T1, Abp1 SH3 (ABP1_YEAST), P15891
Assay: SPOT array

normalised SPOT signal, Boehringer light units (BLU); mean over the file's lines of this peptide | Binder
21.1 | IGSFITINIVPWRP [YLR101C 109-122]
508 | IHLTDKGFKMPKKP [YOR243C 79-92]
118 | IDRIPPPTGRPDKP [YLR289W 221-234]
129 | HTEQNNPPKPQKP [YOR290C 412-424]
89 | IEFKDVSFSYPTRP [YPL270W 493-506]
2090 | HMTHNRKPAEPTKP [YML075C 1020-1033]
86.1 | ILDKTSPETAPHKP [YOR176W 118-131]
370 | IKMASFLPVPEKP [YNL206C 123-135]
2850 | IFLNRKKPALFRP [YNL230C 281-293]
202 | HVDEDGEPIDIKP [YLR429W 120-132]
76.3 | ILEEDLNPDAPPKP [YPL057C 39-52]
124 | IDILGLAELAPGKP [YLR304C 721-734]
163 | IFLNYEWPQWLRP [YOR336W 1160-1172]
99.1 | IAIEREEDSIPSRP [YMR221C 251-264]
97.3 | ILIGLLKDILPQRP [YNR011C 357-370]
114 | IKKSVSSPKVSKP [YLR453C 47-59]
87.4 | HLNNSDIHSQPNKP [YOR329C 803-816]
126 | IITDTTRPSNNRP [YOR368W 277-289]
419 | HYAKNRTPGVMKP [YLR244C 308-320]
38.6 | IKPDAVVPERVKP [YPR171W 226-238]
80.8 | HSAATALPALRRP [YLR162W 19-31]
90.5 | IATSADYIFIPEKP [YMR205C 403-416]
63.2 | IEKTKDILSIPPKP [YOR219C 489-502]
82.1 | IHYKKNIEISPLKP [YML053C 112-125]

Further lines, the binder ahead of its results:

Binder | normalised SPOT signal, Boehringer light units (BLU); mean over the file's lines of this peptide
IERQRLSMVTPSKP [YCL063W 140-153] | 2630
HVPIVKRNKYPPRP [YDR195W 518-531] | 267
IFPPIDDPLPFKP [YDR284C 246-258] | 62
IDFFLALFSDPARP [YHL005C 58-71] | 21.9
IAVGLDALNIPHKP [YHR033W 54-67] | 142
HNTSSSIPKISRP [YGR014W 1282-1294] | 765
IAVISVLPNFKKP [YBL004W 947-959] | 29
HYDVDANIMPPPKP [YBR108W 510-523] | 108
HYPPGYDPTDPNRP [YER166W 1422-1435] | 176
IAHFNYLPPTIRP [YKR099W 624-636] | 197
HPEYTSKVLEPSRP [YJR103W 537-550] | 91.6
IIDSVKVPDSYKP [YDR058C 11-23] | 67.7
IFYSLIYPYLIKP [YIL067C 132-144] | 90.9
IKPPKHIRNEPVKP [YHR037W 22-35] | 87.3
IDLVKHSPGAIKP [YHL030W 1303-1315] | 84.8
ILAILQELSLPSRP [YGR002C 424-437] | 15.7
HSAIQSLSFHPSKP [YJL069C 248-261] | 194

Binder | normalised SPOT signal, Boehringer light units (BLU); mean over the file's lines of this peptide
HVNLDKGKHVPSKP [YKL054C 142-155] | 105
HPEYTSKVLDPSKP [YBL039C 535-548] | 69.3
IILENFIVEVPDKP [YKL005C 358-371] | 57.8
IIEKGPVPENLKP [YLR069C 260-272] | 100
IKEEERLQSQPPRP [YGR268C 17-30] | 137
HTMTSPPPVFNKP [YDL195W 1091-1103] | 1200
IDIPVRQPYSKKP [YDR422C 269-281] | 639
IHTSPHQPSDVKP [YDR227W 60-72] | 121
IIPIAKTPLNARP [YJR001W 478-490] | 74.7
IIHTDDLPEGIRP [YLR090W 426-438] | 125
IESLTTIMRIPSKP [YBR250W 264-277] | 204
IGNDRASPTNKKP [YGR097W 338-350] | 420
HTDDLPEGIRPFKP [YLR090W 428-441] | 61
HLSLTAVPSFLRP [YJR090C 735-747] | 62.7
IGRNIVKVVYPDKP [YJL025W 348-361] | 105
HLYSMDPPLDRKP [YGL131C 343-355] | 172
IGLFGKDLSKPGRP [YBR243C 53-66] | 150
